This note sets out measurements from PMC4730846 (Science Advances, 2015).

The target of the experiment is GroEL (Escherichia coli, UniProt P0A6F5 2-548). The experiment is described as follows: proteinase K protection assay.
Chain of GroEL (P0A6F5 2-548): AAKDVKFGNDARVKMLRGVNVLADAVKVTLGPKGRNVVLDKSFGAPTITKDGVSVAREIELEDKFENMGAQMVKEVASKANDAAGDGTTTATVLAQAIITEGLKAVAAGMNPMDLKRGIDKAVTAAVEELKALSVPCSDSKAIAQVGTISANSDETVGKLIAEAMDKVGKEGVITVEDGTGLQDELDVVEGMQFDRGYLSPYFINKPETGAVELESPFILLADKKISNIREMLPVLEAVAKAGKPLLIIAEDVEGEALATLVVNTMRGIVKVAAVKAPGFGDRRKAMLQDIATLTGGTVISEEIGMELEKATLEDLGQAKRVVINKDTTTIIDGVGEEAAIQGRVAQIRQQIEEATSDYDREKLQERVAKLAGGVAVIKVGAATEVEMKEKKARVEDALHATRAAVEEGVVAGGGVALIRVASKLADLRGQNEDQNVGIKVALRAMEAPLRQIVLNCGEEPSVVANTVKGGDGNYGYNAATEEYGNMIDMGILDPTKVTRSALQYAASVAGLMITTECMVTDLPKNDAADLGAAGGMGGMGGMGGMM

B1: GroES (natural protein)
chain: MNIRPLHDRVIVKRKEVETKSAGGIVLTGSAAAKSTRGEVLAVGNGRILENGEVKPLDVKVGDIVIFNDGYGVKSEKIDNEEVLIMSESDILAIVEA
For B1, the binding result is on record as “binds”.
